In PMC5117957 (Journal of immunology (Baltimore, Md. : 1950), 2016):

Biological target: gp120 (derived from isolate YU2) (HIV-1 isolate YU2, UniProt P35961)
Experiment: ELISA

B1: CD4bs MAb F105 (antibody, V domains shown)
VH: QVQLQESGPGLVKPSETLSLTCTVSGGSISSHYWSWIRQSPGKGLQWIGYIYYSGSTNYSPSLKSRVTISVETAKNQFSLKLTSMTAADTAVYYCARGPVPAVFYGDYRLDPWGQGTLVTVSS
VL: EIVLTQSPGTLSLSAGERATLSCRASQSVSSRYLAWYQQKPGQAPRLLIYGASSRATGIPDRFSGSGSGTDFTLTISRVEPEDFAVYYCQQYDNSVCTFGQGTKLEIK
B1: binds.
